Source: patent publication US20140086913A1 (Gilead, published 2014)
Like-named read-outs stand apart in the source and are kept apart here.

T1: mouse ECD-DDR1-Fc (mouse; human, UniProt Q03146 22-414)
T1 construct: also called mouse DDR1-ECD; wild-type mouse DDR1-ECD; not shown: human IgG1 Fc of the vector pFuse-hIgG1-Fc1 (Invivogen)
T1 sequence: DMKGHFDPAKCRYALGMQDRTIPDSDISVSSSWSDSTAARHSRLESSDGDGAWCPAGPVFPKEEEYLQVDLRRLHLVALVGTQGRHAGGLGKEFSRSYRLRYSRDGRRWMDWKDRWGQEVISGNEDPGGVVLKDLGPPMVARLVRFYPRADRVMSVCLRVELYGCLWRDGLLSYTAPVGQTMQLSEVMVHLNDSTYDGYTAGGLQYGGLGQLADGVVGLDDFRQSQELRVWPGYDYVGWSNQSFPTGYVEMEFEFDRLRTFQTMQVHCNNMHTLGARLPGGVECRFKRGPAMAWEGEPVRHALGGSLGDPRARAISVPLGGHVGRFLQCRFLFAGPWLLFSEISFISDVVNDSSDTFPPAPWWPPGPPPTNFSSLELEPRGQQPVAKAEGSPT

T2: human DDR2 stably expressed on HEK293 cells (human, UniProt Q16832 22-855)
T2 construct: whole, on cells; also called hDDR2
T2 sequence (looked up): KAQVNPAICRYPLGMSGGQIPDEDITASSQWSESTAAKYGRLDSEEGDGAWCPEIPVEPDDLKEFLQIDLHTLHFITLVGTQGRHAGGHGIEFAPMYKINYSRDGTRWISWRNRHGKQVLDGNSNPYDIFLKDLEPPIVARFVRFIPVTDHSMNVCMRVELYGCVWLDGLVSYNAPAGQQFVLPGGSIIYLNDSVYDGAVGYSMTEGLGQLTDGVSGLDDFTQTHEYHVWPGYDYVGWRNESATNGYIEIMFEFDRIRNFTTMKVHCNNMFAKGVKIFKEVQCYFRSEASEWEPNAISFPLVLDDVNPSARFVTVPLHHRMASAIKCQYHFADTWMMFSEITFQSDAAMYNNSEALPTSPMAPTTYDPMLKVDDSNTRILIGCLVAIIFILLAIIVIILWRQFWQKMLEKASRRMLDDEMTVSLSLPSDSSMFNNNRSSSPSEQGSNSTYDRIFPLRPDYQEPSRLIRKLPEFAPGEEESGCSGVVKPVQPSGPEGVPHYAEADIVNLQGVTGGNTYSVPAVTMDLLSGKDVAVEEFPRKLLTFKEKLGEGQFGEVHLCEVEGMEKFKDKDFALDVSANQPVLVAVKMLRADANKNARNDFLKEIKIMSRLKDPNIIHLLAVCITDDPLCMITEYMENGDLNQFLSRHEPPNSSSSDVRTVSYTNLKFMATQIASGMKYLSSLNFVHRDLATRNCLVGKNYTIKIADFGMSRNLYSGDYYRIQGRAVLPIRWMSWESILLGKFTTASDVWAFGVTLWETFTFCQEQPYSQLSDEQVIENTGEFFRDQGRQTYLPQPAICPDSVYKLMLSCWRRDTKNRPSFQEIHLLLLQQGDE


Legend:
[1] = biological target: DDR1 with a ProLink Tag (PK) in engineered U20S cells (DiscoveRx), Q08345; assay: cell-based or functional assay
[2] = biological target: DDR1 endogenously expressed on human cancer cell lines (T47D, HCT-116, A431) (human) (UniProt Q08345); assay: flow cytometry, T47D cells
[3] = biological target: T3, human ECD-DDR1-His protein (human, UniProt Q08345 21-416); assay: ELISA, coated antigen, apparent KD
T3 construct: also called huDDR1-ECD-His; DDR1ECD-6Xhis; not shown: His tag
Method: (§1) In this study, ELISA was used to determine the affinity of murine anti-DDR1 monoclonal antibodies to the extracellular domain (ECD) of either human or murine DDR1. A 96-well MaxiSorb ELISA plates (Nunc) were coated with 2 μg/mL of one of three purified recombinant tagged proteins: human ECD-DDR1-His protein, human ECD-DDR1-Fc, or mouse ECD-DDR1-Fc overnight at 4° C. The next day, the plates were blocked with 5% bovine serum albumin (BSA, Jackson Immunoresearch) prior to the addition of serially diluted anti-DDR1 monoclonal antibodies. Antibodies were incubated for 1 hr at room temperature. The binding of antibody to the antigen was detected by incubating samples with anti-mouse IgG-HRP (horse radish peroxidase) secondary detection antibody (Jackson Immunoresearch) for 1 hr. After a washing step, 3,3′,5,5″-tetramethylbenzidine (TMB) reagent was added for HRP to produce a colorimetric signal. The reaction was stopped by addition of 1M hydrochloric acid after 2 minutes and measured for absorbance (optical density, OD) at 450λ on a Molecular Devices plate reader. The OD values were plotted against antibody concentration and fitted using a using 4-parameter logistic equation in SoftMax software (Molecular Devices). The apparent affinity constant (KD) was taken from the C-parameter of the equation (y=(A−D)/(1+(x/C)̂B)+D). The apparent affinity constants were summarized (in some cases shown as average values) in Table 10 below. Lower value indicates higher binding affinity of the antibody to the antigen.

[4] = biological target: T4, DDR1ECD-Fc (R&D Systems, Catalog #2396-DR) (human, UniProt Q08345 21-416); assay: ELISA, coated antigen, apparent KD
T4 construct: range 21-416; construct as described for the bought immunogen; also called human ECD-DDR1-Fc; Fc-ECD-DR1; not shown: human IgG1, Pro100-Lys330
Method: as §1

mouse ECD-DDR1-Fc [5] = biological target: T1, mouse ECD-DDR1-Fc; assay: ELISA, coated antigen, apparent KD
Method: as §1

[6] = biological target: DDR1 endogenously expressed on human cancer cell lines (T47D, HCT-116, A431) (human) (UniProt Q08345); assay: cell-based or functional assay
[7] = biological target: human DDR1 (isoform B) stably expressed on HEK293 cells (human) (UniProt Q08345); assay: flow cytometry, HEK293/human DDR1, normalized to empty-vector cells
Chain of human DDR1 (isoform B) stably expressed on HEK293 cells (human) (Q08345 19-913): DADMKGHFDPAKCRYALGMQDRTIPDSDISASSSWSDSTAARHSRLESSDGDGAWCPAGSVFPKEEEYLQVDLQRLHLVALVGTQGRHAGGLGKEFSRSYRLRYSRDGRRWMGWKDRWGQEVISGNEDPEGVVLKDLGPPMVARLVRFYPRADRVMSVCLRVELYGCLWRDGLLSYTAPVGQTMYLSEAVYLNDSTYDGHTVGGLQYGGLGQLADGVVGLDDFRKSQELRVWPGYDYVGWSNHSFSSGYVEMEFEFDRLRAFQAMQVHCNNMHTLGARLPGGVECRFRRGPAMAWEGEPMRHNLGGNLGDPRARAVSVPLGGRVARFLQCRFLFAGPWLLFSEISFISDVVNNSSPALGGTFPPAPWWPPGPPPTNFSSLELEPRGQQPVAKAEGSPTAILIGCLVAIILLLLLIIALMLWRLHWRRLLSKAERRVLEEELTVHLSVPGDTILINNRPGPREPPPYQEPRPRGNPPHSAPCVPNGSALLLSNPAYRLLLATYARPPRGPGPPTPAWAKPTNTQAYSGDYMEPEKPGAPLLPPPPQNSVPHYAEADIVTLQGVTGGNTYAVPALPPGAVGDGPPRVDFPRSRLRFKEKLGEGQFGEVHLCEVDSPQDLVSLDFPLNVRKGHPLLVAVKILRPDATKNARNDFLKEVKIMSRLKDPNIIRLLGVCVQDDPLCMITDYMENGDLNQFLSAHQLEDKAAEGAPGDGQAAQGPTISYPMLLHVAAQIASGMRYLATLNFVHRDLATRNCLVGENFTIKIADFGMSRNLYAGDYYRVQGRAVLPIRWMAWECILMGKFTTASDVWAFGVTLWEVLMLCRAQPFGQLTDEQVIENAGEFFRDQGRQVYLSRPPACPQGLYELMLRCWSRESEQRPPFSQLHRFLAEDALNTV

[8] = biological target: DDR1 endogenously expressed on human cancer cell lines (T47D, HCT-116, A431) (human) (UniProt Q08345); assay: flow cytometry, HCT116 cells
[9] = biological target: T4, DDR1ECD-Fc (R&D Systems, Catalog …); assay: ELISA
[10] = biological target: T2, human DDR2 stably expressed on HEK293 …; assay: flow cytometry, HEK293/hDDR2
Method: Additional monoclonal antibodies were obtained from individual hybridomas in Example 1 and were characterized for their properties.
Cells were cultured in DMEM with 10% FBS and 0.8 mg/mL hygromycin. When cells reached 60-80% confluence, they were centrifuged at 1,200 rpm for 5 minutes, suspended in FACS buffer (1×PBS, 1% BSA), and aliquoted into a 96-well plate at 1×10⁶ cells per well. The anti-DDR1 monoclonal antibodies or appropriate isotype controls at 2 μg per 1×10⁶ cells were added and incubated at 4° C. for 1 hr. The cells were washed twice with FACS buffer then stained with the anti-IgG-PE secondary antibody at 10 μL per well at 4° C. for 1 hr. The cells were washed again and measured for the MFI values or signals using flow cytometry (LSR Fortessa instrument, BD Biosciences). Background MFI signals from vector-only cells (i.e. no DDR1 or DDR2 expression) was subtracted from those of the cells treated with antibodies. Higher MFI values or signals indicated increased binding or specificity of the anti-DDR1 antibodies to the DDR1 on the cell surface.

[11] = biological target: human DDR1 (isoform B) stably expressed on HEK293 cells (human) (UniProt Q08345); assay: flow cytometry, HEK293/hDDR1
mouse ECD-DDR1-Fc [12] = biological target: T1, mouse ECD-DDR1-Fc; assay: ELISA, coated antigen
Method: as §1

[13] = biological target: DDR1 endogenously expressed on human cancer cell lines (T47D, HCT-116, A431) (human) (UniProt Q08345); assay: cell-based or functional assay; remark: listed apart in the source

Row | Binder | Mean EC50, DDR1 Tyr513 phosphorylation assay (U20S) [1] | MFI [2] | Kd [3] | Kd [4] | Kd (mouse ECD-DDR1-Fc [5]) | EC50, DDR1 phospho-specific ELISA (T47D) [6] | EC50, cluster formation assay (A431 cells) [6] | Maximal inhibition, DDR1 phospho-specific ELISA (T47D) [6] | NPI of cluster formation at 66 nM (A431 cells) [6] | MFI [7] | MFI [8] | Kd [9] | MFI [10] | MFI [11] | binding result (mouse ECD-DDR1-Fc [12]) | EC50, DDR1 phospho-specific ELISA (T47D) [13] | Maximal inhibition, DDR1 phospho-specific ELISA (T47D) [13] | NPI of cluster formation at 66 nM (A431 cells) [13] | EC50, cluster formation assay (A431 cells) [13]
1 | AB2009 (antibody, V domains shown, mouse hybridoma mAb) VH: EVQLVESGGGLVQPGGSLKFSCAASGFTFSSYGMSWVRQTPDKRLELVAIINSHGFSTYYPDSVKGRFTISRDNAKNTLYLQMSSLKSEDTAIYYCARGGYGNYGMDYWGQGTSVTVSS VL: DIVLTQSPASLAVSLGQRATISCRASESVDSYGNSFMHWYQQKVGQPPKLLIFRASNIESGIPARFSGSGSRTDFTLTINSVEADDVATYYCQQSNEAPYTFGGGTKLEIKR | 1.5 nM | 5930 MFI | 0.197 nM | 0.257 nM | 6.93 nM | 0.47 nM | 0.43 nM | 100% | 127% | 11900 MFI | 1480 MFI | 0.257 nM | 277 MFI | 11900 MFI | – | – | – | – | –
2 | AB2026 (antibody, V domains shown, mouse hybridoma mAb) VH: EVQLVESGGGLVQPGGSLKFSCAASGFTFSSYGMSWVRQTPDKRLELVAIINSHGFSTYYPDSVKGRFTISRDNAKNTLYLQMSSLKSEDTAIYYCARGGYGNYGMDYWGQGTSVTVSS VL: DIVLTQSPASLAVSLGQRATISCRASESVDSYGNSFMHWYQQKVGQPPKLLIFRASNIESGIPARFSGSGSRTDFTLTINSVEADDVATYYCQQSNEAPYTFGGGTKLEIKR | 1.7 nM | 4670 MFI | 0.161 nM | 0.298 nM | 17.9 nM | 0.39 nM | – | 100% | 115% | 6350 MFI | 1540 MFI | 0.298 nM | 203 MFI | 6350 MFI | – | – | – | – | –
3 | AB2029 (antibody, V domains shown, mouse hybridoma mAb) VH: QVLLRQSGPGLVQPSQSLSITCTVSGFSLTTYGVHWVRQSPGKGLEWLGVIWSGGSTDYNAAFISRLTISKDNSKSQVFFKMNSLQANDTAIYYCARYYSGSSLYFAMDYWGQGTSVTVSS VL: NIVMTQTPKFLLVSAGDTVTITCKASQSVSNDVAWYQQKPGQSPKLLIYYASNRYTGVPDRFTGSGFGTDFTFTISTVQTEDLAVYFCQQDYSSLTFGAGTKLELKR | 4.9 nM | 3560 MFI | 0.397 nM | 0.302 nM | – | – | – | – | – | – | 1010 MFI | – | 263 MFI | 11700 MFI | no binding | 0.55 nM | 100% | 100% | –

Stronger by Kd [3], values ahead:

Row | Mean EC50, DDR1 Tyr513 phosphorylation assay (U20S) [1] | MFI [2] | Kd [3] | Kd [4] | Kd (mouse ECD-DDR1-Fc [5]) | EC50, DDR1 phospho-specific ELISA (T47D) [6] | EC50, cluster formation assay (A431 cells) [6] | Maximal inhibition, DDR1 phospho-specific ELISA (T47D) [6] | NPI of cluster formation at 66 nM (A431 cells) [6] | MFI [7] | MFI [8] | Kd [9] | MFI [10] | MFI [11] | binding result (mouse ECD-DDR1-Fc [12]) | EC50, DDR1 phospho-specific ELISA (T47D) [13] | Maximal inhibition, DDR1 phospho-specific ELISA (T47D) [13] | NPI of cluster formation at 66 nM (A431 cells) [13] | EC50, cluster formation assay (A431 cells) [13] | Binder
4 | 7.71 nM | 5010 MFI | 0.153 nM | 0.252 nM | – | – | – | – | – | – | 1390 MFI | – | 92 MFI | 15800 MFI | no binding | 2.26 nM | 100% | 106% | 18.5 nM | AB2021 (antibody, V domains shown, mouse hybridoma mAb) VH: EVKLVESGGGLVKPGGSLNLSCAASGFTFSNYAMSWSRQTPEKRLEWVASISSGGNTYYPDSVRGRFTISRDNARNILYLQMSSLRSEDTAMYYCAREPGTYNWYFDVWGAGTTVTVSS VL: DIVMTQSQKFMSTSVGDRVSVTCKASQNVGTNVAWYQQKPGQSLKALIYSASYRFSGVPDRFTGSGYGTDFTLTISNVQSEDLAEYFCQQCNSYPLTFGAGTKLELKR
5 | 0.99 nM | 4600 MFI | 0.148 nM | 0.257 nM | 17.3 nM | 0.4 nM | 0.63 nM | 100% | 113% | 8540 MFI | 1460 MFI | 0.257 nM | 195 MFI | 8540 MFI | – | – | – | – | – | AB2031 (antibody, V domains shown, mouse hybridoma mAb) VH: EVQLVESGGGLVQPGGSLKFSCAASGFTFSSYGMSWVRQTPDKRLELVAIINSHGFSTYYPDSVKGRFTISRDNAKNTLYLQMSSLKSEDTAIYYCARGGYGNYGMDYWGQGTSVTVSS VL: DIVLTQSPASLAVSLGQRATISCRASESVDSYGNSFMHWYQQKVGQPPKLLIFRASNIESGIPARFSGSGSRTDFTLTINSVEADDVATYYCQQSNEAPYTFGGGTKLEIKR
6 | – | 6130 MFI | 0.07 nM | 0.0883 nM | – | 0.13 nM | – | – | 0.5% | 14300 MFI | 1730 MFI | 0.088 nM | 326 MFI | 14300 MFI | no binding | – | – | – | – | AB2079 (antibody, V domains shown, mouse hybridoma mAb) VH: EVMLVESGGGLVKPGGSLKLSCAASGFTFSNYAMSWVRQTPEKRLEWVAKTSSGDTYTYYPDSVKGRFTISRDNAKNTLYLQMTSLRSEDTAIYYCARQDYYGITPWFFDVWGAGTTVTVSS VL: ENVLTQSPAIMSASPGEKVTMTCRASSSVSSIYLHWYQQKSGASPKLWIYSTSNLASGVPARFSGSGSGTSYSLTITSVEAEDAATYYCQQYSGYPLITFGAGTKLELKR
